# Measurements taken from publication PMC3669275.
# Tests used:
# [1] = target: HIV-1 HXB2 Env (gp160; gp41) expressed on CHO-Env cells (HIV-1 HXB2) (UniProt P04578)
# [2] = target: HIV-1 HXB2 Env (gp160; gp41) expressed on CHO-Env cells (HIV-1 HXB2) (UniProt P04578); remark: listed apart in the source
# [3] = target: 3NC, recombinant protein with a triplicate N36-GGSGG-C34 (HIV-1); assay: SPR; BIACORE X; 3NC (100 µg/ml) amine-coupled to a CM5 chip; C60 or POB1 (333–461) injected at 20 µl/min; 10 mM HEPES pH 7.4, 0.15 M NaCl, 3.4 mM EDTA, 0.005% P20
substance,measurement,setting,value
"C60, recombinant POB1 (462–521) (domain or fragment)","IC50 of inhibition of HIV-1 Env-mediated cell-cell fusion (syncytium formation, CHO-Env with 3T3.T4.CXCR4 cells)",[1],1.09 µM
same,"IC50 of inhibition of infection of MT-2 cells by HIV-1 IIIB (X4-tropic), p24 ELISA",[2],15.3 µM
same,"IC50 of inhibition of infection of TZM-bl cells by HIV-1 Bal (R5-tropic; the Env is that of strain Bal), luciferase",[2],9.21 µM
same,Kd,[3],0.0155 µM
